Laboratory results published in patent publication US20160002355A1 (Genentech, published 2016).

Experiments:
[1] = biological target: T1, anti-gH antibody (anti-HCMV antibody); experiment: preliminary anti-HCMV human PK ELISA, anti-ID coat 1 ug/mL, anti-gH in 1% NHS, HRP-sheep anti-huIgG
T1 construct: Anti-HCMV monoclonal antibody with a human IgG Fc (detected with anti-human IgG Fc)
Experimental: The assay was carried out as follows: microtiter ELISA plates were coated with anti-idiotypic monoclonal antibodies at 1 μg/mL in PBS overnight. Anti-CI and anti-gH were diluted in 1% NHS and added to the wells, being subsequently detected with 50 ng/mL (in-well concentration) of HRP-Sheep anti-huIgG.

[2] = biological target: T1, anti-gH antibody (anti-HCMV antibody); experiment: Biacore

T1 sequence (VH, as listed by the source, chain 1 of 2): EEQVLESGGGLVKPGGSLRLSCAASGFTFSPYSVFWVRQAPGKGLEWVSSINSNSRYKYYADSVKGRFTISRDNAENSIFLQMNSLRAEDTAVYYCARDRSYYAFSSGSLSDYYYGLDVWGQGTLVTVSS
T1 sequence (VL, as listed by the source, chain 2 of 2): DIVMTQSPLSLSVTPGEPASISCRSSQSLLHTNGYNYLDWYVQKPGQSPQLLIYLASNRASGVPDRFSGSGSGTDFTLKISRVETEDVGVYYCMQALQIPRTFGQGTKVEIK

B1: murine mAb 1.9E1.1 (antibody, IgG1, V domains shown)
VH: QVQLQQSGAELVMPGASVKMSCKASGYTFTDYWMYWVNQRPGQGLEWIGAIDTSDSYTTYNQNFKGKATLTVDESSSTAYMQLNSLTSEDSAVYYCARSGFPLFYYPMDYWGQGTSVTVSS
VL: QAVVTQESALTTSPGETVTLTCRSSTGAVTTSNYANWVQEKPDHLFTGLIGGTVNRAPGVPARFSGSLIGDKAALTITGAQTEDEAVYFCALWYSNHLVFGGGTKLTVL
notes: Used biotin-conjugated in the clinical PK ELISA and the LC-MS/MS capture; also called anti-gH idiotypic antibody; anti-gH anti-ID mAb
fold of OD in the presence of anti-gH over OD in the absence of anti-gH [1]: > 2 fold
Kd [2]: 0.1 nM
